According to the supplement of paper PMC10065799, “High-throughput profiling of sequence recognition by tyrosine kinases and SH2 domains using bacterial peptide display” (eLife, 2023):

How the values were obtained:
Hck = Hck (UniProt P08631); assay: phosphorylation enrichment, bacterial display (enrichment ratio); higher = better substrate or ligand; peptides without Tyr show the background
Fes = Fes (UniProt P07332); assay: as above
FGFR1 = FGFR1 (UniProt P11362); assay: as above
Fer (mouse) = assay: as above
c-Abl (mouse) = assay: as above
EPHB2 = EPHB2 (UniProt P29323); assay: as above
Chain of EPHB2 (P29323 whole entry, looked up): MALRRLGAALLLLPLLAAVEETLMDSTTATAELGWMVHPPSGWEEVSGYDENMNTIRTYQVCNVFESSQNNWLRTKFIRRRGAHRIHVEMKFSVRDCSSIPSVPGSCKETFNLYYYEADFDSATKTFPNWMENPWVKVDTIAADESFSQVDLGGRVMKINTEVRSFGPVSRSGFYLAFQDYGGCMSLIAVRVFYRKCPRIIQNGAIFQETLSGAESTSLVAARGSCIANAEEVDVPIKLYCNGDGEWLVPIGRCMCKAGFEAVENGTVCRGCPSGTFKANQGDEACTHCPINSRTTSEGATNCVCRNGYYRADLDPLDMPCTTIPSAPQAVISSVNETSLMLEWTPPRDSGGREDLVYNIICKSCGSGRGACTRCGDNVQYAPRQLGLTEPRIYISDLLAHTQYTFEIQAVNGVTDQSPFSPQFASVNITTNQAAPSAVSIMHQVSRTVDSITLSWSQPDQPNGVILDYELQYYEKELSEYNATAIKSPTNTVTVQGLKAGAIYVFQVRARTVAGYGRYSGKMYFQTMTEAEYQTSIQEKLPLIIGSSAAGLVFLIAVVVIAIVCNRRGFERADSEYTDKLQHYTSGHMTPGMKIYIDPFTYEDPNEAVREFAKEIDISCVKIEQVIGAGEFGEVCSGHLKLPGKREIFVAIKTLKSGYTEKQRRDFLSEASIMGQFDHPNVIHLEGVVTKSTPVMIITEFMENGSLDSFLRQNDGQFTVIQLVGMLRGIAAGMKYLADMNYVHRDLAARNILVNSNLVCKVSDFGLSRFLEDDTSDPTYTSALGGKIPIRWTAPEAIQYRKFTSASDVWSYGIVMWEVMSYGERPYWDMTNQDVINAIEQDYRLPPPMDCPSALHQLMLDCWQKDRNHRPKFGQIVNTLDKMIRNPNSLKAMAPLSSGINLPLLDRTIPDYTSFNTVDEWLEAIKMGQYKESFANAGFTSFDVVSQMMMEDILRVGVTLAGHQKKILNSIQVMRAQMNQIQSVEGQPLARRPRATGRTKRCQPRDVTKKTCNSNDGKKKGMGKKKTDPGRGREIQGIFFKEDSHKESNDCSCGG

EPHB1 = EPHB1 (UniProt P54762); assay: as above
Chain of EPHB1 (P54762 whole entry, looked up): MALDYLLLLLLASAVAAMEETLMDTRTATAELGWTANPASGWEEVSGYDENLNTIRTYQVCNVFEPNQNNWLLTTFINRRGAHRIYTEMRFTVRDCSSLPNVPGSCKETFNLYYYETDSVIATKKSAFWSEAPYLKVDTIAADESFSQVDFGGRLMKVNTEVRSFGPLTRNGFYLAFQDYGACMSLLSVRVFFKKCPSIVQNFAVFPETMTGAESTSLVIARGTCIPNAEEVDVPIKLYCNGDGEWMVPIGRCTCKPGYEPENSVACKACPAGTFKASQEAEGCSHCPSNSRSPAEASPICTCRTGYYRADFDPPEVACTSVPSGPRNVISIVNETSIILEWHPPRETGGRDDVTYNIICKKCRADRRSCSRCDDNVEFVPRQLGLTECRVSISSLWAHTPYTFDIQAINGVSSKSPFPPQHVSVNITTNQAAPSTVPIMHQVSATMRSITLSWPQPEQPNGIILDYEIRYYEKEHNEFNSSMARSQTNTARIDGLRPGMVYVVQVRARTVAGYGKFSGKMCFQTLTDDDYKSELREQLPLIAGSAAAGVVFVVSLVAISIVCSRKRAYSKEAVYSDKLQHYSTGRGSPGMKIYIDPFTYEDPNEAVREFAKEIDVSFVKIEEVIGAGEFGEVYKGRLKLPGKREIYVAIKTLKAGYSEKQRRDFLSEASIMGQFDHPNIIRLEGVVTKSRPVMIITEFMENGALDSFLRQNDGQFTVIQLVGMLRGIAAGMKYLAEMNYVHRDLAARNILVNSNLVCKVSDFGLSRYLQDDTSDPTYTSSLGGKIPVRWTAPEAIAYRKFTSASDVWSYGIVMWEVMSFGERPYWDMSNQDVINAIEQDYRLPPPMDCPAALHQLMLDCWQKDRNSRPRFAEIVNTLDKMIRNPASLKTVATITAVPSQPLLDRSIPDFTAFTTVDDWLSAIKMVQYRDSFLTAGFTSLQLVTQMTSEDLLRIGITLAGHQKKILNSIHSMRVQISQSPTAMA

MERTK = MERTK (UniProt Q12866); assay: as above
AncSZ = assay: as above
Fyn = Fyn (UniProt P06241); assay: as above
Chain of Fyn (P06241 whole entry, looked up): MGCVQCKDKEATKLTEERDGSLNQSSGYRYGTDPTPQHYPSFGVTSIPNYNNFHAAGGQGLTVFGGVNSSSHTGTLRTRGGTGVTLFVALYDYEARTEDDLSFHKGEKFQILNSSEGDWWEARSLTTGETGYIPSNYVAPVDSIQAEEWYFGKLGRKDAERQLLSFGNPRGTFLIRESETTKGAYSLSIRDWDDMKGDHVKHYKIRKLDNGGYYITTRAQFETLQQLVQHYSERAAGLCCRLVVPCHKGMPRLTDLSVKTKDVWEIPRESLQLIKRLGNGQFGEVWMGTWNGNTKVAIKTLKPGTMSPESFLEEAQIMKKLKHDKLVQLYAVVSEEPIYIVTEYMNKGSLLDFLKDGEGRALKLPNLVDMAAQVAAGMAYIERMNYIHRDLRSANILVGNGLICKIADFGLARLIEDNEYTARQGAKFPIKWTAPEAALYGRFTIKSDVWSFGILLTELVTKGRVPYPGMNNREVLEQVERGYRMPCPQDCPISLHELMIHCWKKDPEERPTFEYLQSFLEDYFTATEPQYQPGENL

FGFR3 = FGFR3 (UniProt P22607); assay: as above
Jak2 = Jak2 (UniProt O60674); assay: as above
Chain of Jak2 (O60674 whole entry, looked up): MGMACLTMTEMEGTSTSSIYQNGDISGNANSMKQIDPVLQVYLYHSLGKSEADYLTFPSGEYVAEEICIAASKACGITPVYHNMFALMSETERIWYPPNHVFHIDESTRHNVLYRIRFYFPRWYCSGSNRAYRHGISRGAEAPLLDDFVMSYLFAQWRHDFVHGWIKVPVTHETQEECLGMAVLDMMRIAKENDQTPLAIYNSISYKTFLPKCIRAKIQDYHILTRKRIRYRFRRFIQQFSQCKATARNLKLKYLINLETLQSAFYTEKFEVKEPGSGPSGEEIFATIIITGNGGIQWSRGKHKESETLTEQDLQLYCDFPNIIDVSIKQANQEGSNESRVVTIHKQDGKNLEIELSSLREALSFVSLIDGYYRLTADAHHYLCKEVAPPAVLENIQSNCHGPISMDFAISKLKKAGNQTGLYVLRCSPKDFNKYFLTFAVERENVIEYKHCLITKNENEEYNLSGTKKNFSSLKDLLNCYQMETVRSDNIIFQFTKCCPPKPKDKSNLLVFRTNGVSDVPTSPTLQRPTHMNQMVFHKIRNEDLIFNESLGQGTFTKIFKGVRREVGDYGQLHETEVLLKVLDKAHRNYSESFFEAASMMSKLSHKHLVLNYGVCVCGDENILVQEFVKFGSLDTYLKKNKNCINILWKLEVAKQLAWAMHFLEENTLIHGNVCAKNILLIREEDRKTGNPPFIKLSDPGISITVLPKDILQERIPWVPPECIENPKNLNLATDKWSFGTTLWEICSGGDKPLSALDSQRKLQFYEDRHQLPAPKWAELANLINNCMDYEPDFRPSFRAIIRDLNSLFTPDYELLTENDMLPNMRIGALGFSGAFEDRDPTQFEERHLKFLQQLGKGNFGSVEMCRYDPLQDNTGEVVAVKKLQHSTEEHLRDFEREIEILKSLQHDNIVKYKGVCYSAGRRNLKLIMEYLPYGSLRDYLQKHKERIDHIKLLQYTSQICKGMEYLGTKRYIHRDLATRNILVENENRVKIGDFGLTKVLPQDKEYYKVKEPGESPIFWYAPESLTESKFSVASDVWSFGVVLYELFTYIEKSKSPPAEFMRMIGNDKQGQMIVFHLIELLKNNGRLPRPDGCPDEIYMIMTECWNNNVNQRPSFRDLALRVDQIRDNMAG

c-Src = assay: as above
SHP2-C SH2 = assay: SH2 binding enrichment of the phosphorylated peptide, bacterial display (enrichment ratio); higher = better substrate or ligand; peptides without Tyr show the background
c-Src SH2 = assay: as above
Grb2 SH2 = Grb2 SH2 (UniProt P62993); assay: as above
Chain of Grb2 SH2 (P62993 whole entry, looked up, the tested form may be a part): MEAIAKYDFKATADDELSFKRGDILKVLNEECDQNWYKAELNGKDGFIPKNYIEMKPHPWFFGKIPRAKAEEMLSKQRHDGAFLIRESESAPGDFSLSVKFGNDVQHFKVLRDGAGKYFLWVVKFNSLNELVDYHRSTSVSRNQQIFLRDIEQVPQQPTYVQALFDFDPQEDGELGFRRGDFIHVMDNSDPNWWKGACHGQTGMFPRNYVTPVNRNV
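Wherever SH2 binding enrichment of the phosphorylated peptide, bacterial display is given: peptide library displayed on the E. coli surface as eCPX fusions, selected cells deep-sequenced, score is each peptide's frequency after selection divided by its frequency in the input.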
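Wherever phosphorylation enrichment, bacterial display is given: 11-residue human phosphosite peptides and single-mutation variants displayed on the E. coli surface, counted by deep sequencing, each peptide's frequency after selection divided by its frequency in the unselected input library; frequency after pTyr selection over input frequency; kinase dosed for 20-30% of maximal phosphorylation in three min.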

Chain of Hck (P08631 whole entry, looked up): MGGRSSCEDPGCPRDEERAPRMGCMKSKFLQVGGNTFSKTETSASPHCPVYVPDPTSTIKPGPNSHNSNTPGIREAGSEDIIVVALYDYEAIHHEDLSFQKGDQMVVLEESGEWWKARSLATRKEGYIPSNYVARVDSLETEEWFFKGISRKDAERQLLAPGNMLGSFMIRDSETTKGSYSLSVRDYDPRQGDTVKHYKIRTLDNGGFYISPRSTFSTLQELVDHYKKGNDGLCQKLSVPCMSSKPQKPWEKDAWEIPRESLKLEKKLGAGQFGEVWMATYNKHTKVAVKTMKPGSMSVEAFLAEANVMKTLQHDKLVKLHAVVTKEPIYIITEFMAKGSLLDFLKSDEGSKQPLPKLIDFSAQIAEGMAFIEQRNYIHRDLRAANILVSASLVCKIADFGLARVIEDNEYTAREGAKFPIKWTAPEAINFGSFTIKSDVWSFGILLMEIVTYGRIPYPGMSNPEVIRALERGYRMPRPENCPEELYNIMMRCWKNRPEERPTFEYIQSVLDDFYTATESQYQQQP

Row | Sequence | phosphorylation enrichment (Hck) | phosphorylation enrichment (Fes) | phosphorylation enrichment (FGFR1) | phosphorylation enrichment (Fer (mouse)) | phosphorylation enrichment (c-Abl (mouse)) | phosphorylation enrichment (EPHB2) | phosphorylation enrichment (EPHB1) | phosphorylation enrichment (MERTK) | phosphorylation enrichment (AncSZ) | phosphorylation enrichment (Fyn) | phosphorylation enrichment (FGFR3) | phosphorylation enrichment (Jak2) | phosphorylation enrichment (c-Src) | SH2 binding enrichment (SHP2-C SH2) | SH2 binding enrichment (c-Src SH2) | SH2 binding enrichment (Grb2 SH2)
1 | KKKKQYKGKYL [CASK_Y708_D710G] | 0.513 | 0.582 | 0.474 | 0.444 | 0.529 | 0.54 | 0.502 | 0.629 | 0.667 | 0.57 | 0.584 | 0.507 | 0.75 | 0.302 | 0.436 | 0.669
2 | QLLIEYPPEEV [ZZZ3_Y670_K669E] | 0.534 | 1.31 | 0.659 | 0.671 | 1.03 | 0.933 | 0.788 | 0.622 | 1.36 | 0.618 | 0.833 | 1.27 | 0.44 | 0.679 | 0.569 | 1.04
3 | QEITTYRRLLE [KRT14_Y415_A413T] | 0.542 | 1.11 | 0.657 | 0.505 | 0.815 | 0.548 | 0.619 | 0.416 | 1.03 | 0.708 | 0.78 | 1.07 | 0.649 | 0.598 | 0.493 | 0.915
4 | RELGKYGLQAY [ALDH2_Y497_E496K] | 0.455 | 0.72 | 0.426 | 0.475 | 0.581 | 0.402 | 0.403 | 0.457 | 0.683 | 0.464 | 0.47 | 0.543 | 0.356 | 0.564 | 0.455 | 1.15
5 | SLLKDYSPQLQ [OTC_Y345_T343K] | 0.504 | 0.806 | 0.495 | 0.489 | 0.59 | 0.525 | 0.554 | 0.443 | 0.703 | 0.6 | 0.999 | 0.624 | 0.469 | 0.604 | 0.463 | 0.884
6 | KWTVDYLGQVG [TYW5_Y48_S50G] | 0.487 | 0.774 | 0.531 | 0.405 | 0.621 | 0.444 | 0.515 | 0.336 | 0.913 | 0.46 | 0.602 | 0.845 | 0.392 | 0.918 | 0.494 | 1.04
7 | KENITYMKSEQ [L1TD1_Y24_R27S] | 0.457 | 0.767 | 0.456 | 0.32 | 0.503 | 0.426 | 0.411 | 0.39 | 0.806 | 0.358 | 0.524 | 0.585 | 0.425 | 0.629 | 0.53 | 1.01
8 | KDHPDYKYPPR [SOX10_Y171_Q174P] | 0.381 | 0.601 | 0.549 | 0.345 | 0.515 | 0.392 | 0.355 | 0.331 | 0.612 | 0.438 | 0.522 | 0.462 | 0.4 | 0.961 | 0.637 | 1.08
9 | MRAIIYNSSTA [PLEKHA7_Y243_L241I] | 0.501 | 0.838 | 0.554 | 0.528 | 1.04 | 0.609 | 0.473 | 0.47 | 0.812 | 0.509 | 0.623 | 0.765 | 0.447 | 0.665 | 0.456 | 0.679
10 | YEEDSYVTRSQ [RET_Y905_K907T] | 0.543 | 1.12 | 0.604 | 0.548 | 0.69 | 0.565 | 0.59 | 0.468 | 1.21 | 0.499 | 0.964 | 1.04 | 0.496 | 0.628 | 2.16 | 0.906
11 | NIWDSYTTNKV [GNB1_Y85_I80N] | 0.497 | 0.9 | 0.497 | 0.414 | 0.656 | 0.488 | 0.515 | 0.387 | 1 | 0.416 | 0.658 | 0.663 | 0.437 | 0.709 | 0.425 | 0.983
12 | VATRWYWSPEL [CDKL5_Y177_R178W] | 0.532 | 1.15 | 5.92 | 0.512 | 0.771 | 3.81 | 4.61 | 6.3 | 1.06 | 0.464 | 5.13 | 1.14 | 0.647 | 0.731 | 1.94 | 0.971
13 | ILTLKYPIERG [ACTA1_Y71_H75R] | 0.49 | 0.812 | 0.572 | 0.407 | 0.581 | 0.663 | 0.542 | 0.442 | 0.669 | 0.554 | 0.655 | 0.675 | 0.479 | 1.01 | 0.691 | 0.901
14 | RGVVMYTSKDR [ZG16B_Y136_M133V] | 0.677 | 0.865 | 0.433 | 0.41 | 1.4 | 0.724 | 0.601 | 0.552 | 0.694 | 0.665 | 0.568 | 1.02 | 0.622 | 0.981 | 0.596 | 0.91
15 | HNVPIYEGYGL [ACTA1_Y168_A172G] | 17.4 | 5.48 | 0.666 | 27.9 | 3.23 | 41.9 | 31.8 | 10.9 | 1.52 | 20 | 0.941 | 0.805 | 11.5 | 0.886 | 1.33 | 0.755
16 | IQKKFYRAILE [CHD7_Y1218_YF] | 0.332 | 0.727 | 0.37 | 0.398 | 0.51 | 0.275 | 0.396 | 0.409 | 0.523 | 0.344 | 0.46 | 0.636 | 0.414 | 0.699 | 0.685 | 0.769
17 | ADSLRYIYPKL [EIF2B3_Y92] | 0.386 | 0.602 | 0.354 | 0.339 | 0.471 | 0.362 | 0.416 | 0.43 | 0.552 | 0.332 | 0.463 | 0.634 | 0.472 | 1.89 | 12.5 | 1.05

Row | Sequence | phosphorylation enrichment (Hck) | phosphorylation enrichment (Fes) | phosphorylation enrichment (FGFR1) | phosphorylation enrichment (Fer (mouse)) | phosphorylation enrichment (c-Abl (mouse)) | phosphorylation enrichment (EPHB2) | phosphorylation enrichment (EPHB1) | phosphorylation enrichment (MERTK) | phosphorylation enrichment (AncSZ) | phosphorylation enrichment (Fyn) | phosphorylation enrichment (FGFR3) | phosphorylation enrichment (Jak2) | phosphorylation enrichment (c-Src) | SH2 binding enrichment (SHP2-C SH2) | SH2 binding enrichment (c-Src SH2) | SH2 binding enrichment (Grb2 SH2)
18 | EDASEYYENYI [PARP4_Y214_F215Y] | 0.666 | 1.3 | 1.66 | 0.995 | 0.716 | 0.761 | 0.782 | 0.467 | 1.93 | 0.738 | 1.6 | 1.02 | 1.02 | 0.589 | 0.582 | 0.857
19 | YPKAHYHWLVL [APTX_Y214_R213H] | 0.501 | 1.15 | 2.54 | 0.571 | 0.846 | 0.482 | 0.505 | 0.61 | 0.823 | 0.368 | 1.94 | 1.16 | 0.487 | 1.43 | 1.2 | 1.6
20 | FKTPTYPFLLP [PLD2_Y578_YF] | 0.43 | 0.693 | 0.652 | 0.362 | 0.833 | 0.422 | 0.74 | 0.588 | 0.641 | 0.413 | 0.704 | 0.815 | 0.552 | 0.745 | 0.657 | 0.971
21 | LPKVSYMKAID [GLRA1_Y307_V308M] | 0.406 | 0.911 | 0.481 | 0.65 | 0.967 | 0.711 | 0.632 | 0.484 | 0.941 | 0.694 | 0.77 | 0.707 | 0.574 | 0.731 | 0.473 | 0.995
22 | NFDRVYIYHLR [MYOF_Y1137] | 0.782 | 1.23 | 0.575 | 0.612 | 0.718 | 0.618 | 0.593 | 0.528 | 1.19 | 0.858 | 0.755 | 1.03 | 1.01 | 5.25 | 0.896 | 1.23
23 | TSYQMYDKGLV [IARS2_Y231_F227S] | 1.13 | 0.769 | 0.496 | 0.405 | 0.432 | 0.665 | 0.468 | 0.463 | 0.986 | 0.604 | 0.568 | 0.957 | 0.54 | 0.759 | 0.672 | 0.999
24 | HNMPIYEGYAL [ACTA1_Y168_V165M] | 13.5 | 2.64 | 0.465 | 17.4 | 11.3 | 25.5 | 19.7 | 11 | 1.3 | 13.1 | 0.654 | 0.831 | 10.4 | 0.893 | 2.93 | 0.71
25 | SARVRYLMAEK [LDHB_Y173_F171V] | 0.423 | 0.756 | 0.482 | 0.439 | 0.472 | 0.521 | 0.46 | 0.417 | 0.579 | 0.43 | 0.532 | 0.39 | 0.38 | 0.755 | 0.862 | 0.925
26 | RESFKYFPSSL [CXXC1_Y218_YF] | 0.4 | 0.567 | 0.543 | 0.295 | 0.454 | 0.421 | 0.424 | 0.421 | 0.748 | 0.435 | 0.547 | 0.612 | 0.852 | 0.565 | 0.367 | 0.955
27 | YSKDIYKRVTG [PANK2_Y405_N404I] | 0.487 | 0.51 | 0.409 | 0.551 | 0.435 | 0.419 | 0.38 | 0.401 | 0.5 | 0.415 | 0.342 | 0.447 | 0.394 | 0.612 | 0.487 | 0.813
28 | LERFIYNRQEF [HLA-DPB1_Y59_E62Q_YF] | 0.77 | 0.87 | 0.491 | 0.427 | 0.464 | 0.551 | 0.436 | 0.357 | 0.766 | 0.551 | 0.532 | 0.629 | 0.859 | 0.783 | 0.566 | 1.03
29 | HHTDEYEYDEL [TGM1_Y134] | 0.943 | 1.59 | 1.02 | 0.958 | 1.08 | 0.904 | 1.02 | 0.687 | 2.01 | 1.01 | 1.05 | 1.19 | 0.916 | 0.749 | 0.584 | 0.906
30 | RRNVFYFSFLL [PTEN_Y177_Y174N_YF] | 0.923 | 1.62 | 0.743 | 0.852 | 2.83 | 1.03 | 0.998 | 0.937 | 1.81 | 0.984 | 0.709 | 1.69 | 1.29 | 0.691 | 0.893 | 1.34
31 | CTLSVYRQLHN [LUZP1_Y1036] | 0.456 | 1.29 | 0.513 | 0.536 | 0.771 | 0.631 | 0.622 | 0.435 | 1.1 | 0.466 | 0.823 | 1.07 | 0.412 | 0.608 | 0.464 | 0.655
32 | QYNMQYSSSAA [ERBB2IP_Y981_I979M] | 0.732 | 1.18 | 0.792 | 0.872 | 1.09 | 0.687 | 0.445 | 0.793 | 0.882 | 0.736 | 0.655 | 0.956 | 0.859 | 1.72 | 0.603 | 1.04
33 | VYAADYYKLLG [ROR2_Y645] | 1.28 | 0.944 | 12.8 | 0.516 | 1.99 | 1.78 | 2.38 | 5.31 | 1.28 | 1.01 | 10.1 | 7.96 | 2.26 | 0.46 | 0.789 | 0.981
